Assays:
[1] = molecular target: Human PCNA (proliferating cell nuclear antigen) (human); experiment: crystal structure; co-crystal of PCNA with a 10 bp dsDNA, hanging drop, 20 °C, 11% PEG 3350, 0.1 M sodium acetate pH 4.5; space group H3, 2.8 Å
[2] = molecular target: PCNA (human, UniProt P12004 1-261); experiment: NMR; 1H-15N TROSY titration, T73 CSP, single-site model; text gives ~0.7 mM; NMR: 100 uM PCNA, 20 mM sodium phosphate, 50 mM NaCl, pH 7.0, 20 uM DSS, 0.01% NaN3, 5% 2H2O, 35 C; conditions: protein: recombinant; tags: N-terminal His6 and PreScission site, cleaved; residual GPH- at N terminus; chain copies: 3; blunt
Sequence of PCNA (P12004 whole entry): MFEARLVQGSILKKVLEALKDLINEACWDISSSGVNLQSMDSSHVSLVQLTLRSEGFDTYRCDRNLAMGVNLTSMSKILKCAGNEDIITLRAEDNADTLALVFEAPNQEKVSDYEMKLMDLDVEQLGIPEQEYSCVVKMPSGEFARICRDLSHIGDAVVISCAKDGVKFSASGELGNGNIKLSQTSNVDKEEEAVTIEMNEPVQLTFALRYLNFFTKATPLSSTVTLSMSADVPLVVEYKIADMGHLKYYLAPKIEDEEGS

Human PCNA (proliferating cell nuclear antigen) (natural protein)
stoichiometry N [1]: 3

B1: 10 bp dsDNA (dsDNA)
DNA 1: ATACGATGGG
DNA 2: CCCATCGTAT
Kd [2]: 700 ± 100 µM
